Experimental data: US20240374532A1
Each block holds one substance with its values, some of them ahead of it.

What was measured:
GST-Mcl-1 = GST-Mcl-1 (UniProt Q07820); assay: SPR (Biacore 3000), GST-Mcl-1 binding to GST-Casp8p41, mean of 3 experiments; target Mcl-1
GST-Bcl-xL = GST-Bcl-xL (UniProt Q07817); assay: SPR (Biacore 3000), GST-Bcl-xL binding to GST-Casp8p41, mean of 3 experiments; target Bcl-xL
GST-Bcl-2 (human) [1] = molecular target: GST-Bcl-2 (human) (UniProt P10415); assay: SPR (Biacore 3000), GST-Bcl-2 injected over immobilized GST-Casp8p41, mean of 3 experiments; target Bcl-2
GST-Casp8p41 = GST-Casp8p41 (UniProt Q14790); assay: SPR, GST-Bcl-2 R146A over immobilized Casp8p41
GST-Bcl-2 (human) [2] = molecular target: GST-Bcl-2 (human) (UniProt P10415); assay: SPR, GST-Casp8p41 Val150Glu/Leu157Lys over immobilized GST-Bcl-2

Sequence of GST-Bcl-2 (human) (P10415 1-218): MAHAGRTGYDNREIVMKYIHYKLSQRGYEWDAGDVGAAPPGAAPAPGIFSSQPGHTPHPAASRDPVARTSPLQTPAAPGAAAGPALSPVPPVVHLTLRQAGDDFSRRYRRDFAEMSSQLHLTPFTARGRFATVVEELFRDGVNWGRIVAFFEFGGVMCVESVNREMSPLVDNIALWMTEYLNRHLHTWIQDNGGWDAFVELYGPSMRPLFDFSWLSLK
Sequence of GST-Mcl-1 (Q07820 1-327): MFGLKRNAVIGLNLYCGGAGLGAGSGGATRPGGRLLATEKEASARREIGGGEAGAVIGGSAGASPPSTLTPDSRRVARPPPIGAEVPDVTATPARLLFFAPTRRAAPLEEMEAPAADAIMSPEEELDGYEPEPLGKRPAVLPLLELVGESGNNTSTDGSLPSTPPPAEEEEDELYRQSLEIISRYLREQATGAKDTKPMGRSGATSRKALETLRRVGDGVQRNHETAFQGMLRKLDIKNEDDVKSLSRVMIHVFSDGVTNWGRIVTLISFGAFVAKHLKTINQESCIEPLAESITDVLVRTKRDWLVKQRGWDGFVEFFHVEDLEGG
Sequence of GST-Bcl-xL (Q07817 1-212): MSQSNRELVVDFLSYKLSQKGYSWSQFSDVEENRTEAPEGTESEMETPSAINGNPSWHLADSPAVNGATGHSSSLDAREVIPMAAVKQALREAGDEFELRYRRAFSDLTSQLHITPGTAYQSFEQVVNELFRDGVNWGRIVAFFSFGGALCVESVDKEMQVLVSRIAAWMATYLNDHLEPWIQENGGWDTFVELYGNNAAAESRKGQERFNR

Kd (GST-Mcl-1): 8 nM
Kd (GST-Bcl-xL): 11 nM
Kd (GST-Bcl-2 (human) [1]): 13 nM
Substance: GST-Casp8p41 (from UniProt Q14790 1-479)

fold decrease in affinity against wild-type Bcl-2 (GST-Casp8p41): 250 fold
Substance: GST-Bcl-2 R146A (from UniProt P10415 1-218)

fold decrease in affinity against wild-type Casp8p41 (GST-Bcl-2 (human) [2]): > 300 fold
Substance: GST-Casp8p41 Val150Glu/Leu157Lys (from UniProt Q14790 1-479)
